Source: patent publication US20210347908A1 (ELPISCIENCE SUZHOU BIOPHARMA, published 2021)
Read-outs that look alike come from different tables or passages of the source. Values belong to the binder of their own block, whether it stands above or below them.

Experiments:
[1] = target: T1, 6×His tagged human SIRPα v1 ECD recombinant protein (human, UniProt P78324 31-373); assay: SPR (Biacore)
T1 construct: extracellular domain; bought; also called hSIRPα V1 (SPR antigen)
Protocol: (§1) Anti-SIRPα chimeric antibodies were characterized for binding affinity against human SIRPα v1, human SIRPα v2 and C57BL/6 mouse SIRPα using Biacore (GE). Briefly the antibodies to be tested were captured to CM5 chip (GE) using Human Antibody Capture Kit (GE). The antigens of 6×His tagged human SIRPα v1, human SIRPα v2 and C57BL/6 mouse SIRPα ECD recombinant proteins were serially diluted for multiple doses and injected at 30 μl/min for 180 s. Buffer flow was maintained for dissociation of 400 s. 3 M MgCl₂ was used for chip regeneration. The association and dissociation curves were fit with 1:1 binding model, and the Ka/Kd/KD values for each antibody were calculated.

[2] = target: T2, 6×His tagged human SIRPα v2 ECD recombinant protein (human); assay: SPR (Biacore)
Protocol: as §1

[3] = target: T3, Fc tagged human SIRPγ ECD recombinant protein (human, UniProt Q9P1W8 29-360); assay: ELISA
T3 construct: range 1-360; cloned range includes the signal peptide; also called hSIRPγ; not shown: human IgG Fc region (hFc) of the pCPC vector
Outline: (§2)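 Purified hybridoma or chimeric antibodies were incubated on antigen-coated plates for 1 hour at 37° C. Bound antibody was detected with HRP-labeled anti-mouse or anti-human IgG (1 hour, 37° C.), then TMB for 15 minutes at room temperature, stopped with 1N HCl. EC₅₀ derived from OD 450 nm.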

[4] = target: T3, Fc tagged human SIRPγ ECD recombinant …; assay: ELISA; remark: listed apart in the source
Outline: as §2

[5] = target: T3, Fc tagged human SIRPγ ECD recombinant …; assay: competitive ELISA, biotin-CD47 ECD to coated SIRPγ ECD
Protocol: For CD47 and SIRPγ interaction blocking activity detection, antibody and biotin labeled soluble human CD47 ECD recombinant protein were co-incubated with ELISA microplate coated human SIRPγ ECD recombinant protein. After washing, horseradish peroxidase labeled streptavidin (HRP-SA, Sigma) was added and incubated at 37° C. for 1 hour. Then, 100 μl/well of TMB solution (Biotechnology) was added. After incubation for 15 minutes at room temperature, the reaction was stopped by the addition of 50 μl of 1N HCl. OD 450 nm was read. Blocking ratio and IC₅₀ was calculated. In comparison with other known anti-SIRPα antibodies, 022, 050, 055, and 074 cannot block CD47 and SIRPα interaction. In particular, all of the antibodies of the invention cannot block CD47 and SIRPγ interaction.

[6] = target: T3, Fc tagged human SIRPγ ECD recombinant …; assay: ELISA; remark: listed apart in the source
Outline: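 Antibodies were incubated on plates coated with recombinant SIRP ECD antigens for 1 h at 37° C. Detection used HRP anti-mouse or anti-human IgG (1 h, 37° C), then TMB for 15 min at room temperature, stopped with 1N HCl. EC₅₀ was derived from OD 450 nm.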

[7] = target: T1, 6×His tagged human SIRPα v1 ECD …; assay: SPR (Biacore), antibody captured
Protocol: as §1

[8] = target: T2, 6×His tagged human SIRPα v2 ECD …; assay: SPR (Biacore), antibody captured
Protocol: as §1

[9] = target: T4, 6×His tagged C57BL/6 mouse SIRPα ECD recombinant protein (mouse (C57BL/6), UniProt P97797 32-373); assay: SPR (Biacore), antibody captured
T4 construct: extracellular domain; bought; also called mSIRPα (C57BL/6); mouse SIRPα (C57BL/6) ECD
T4 sequence: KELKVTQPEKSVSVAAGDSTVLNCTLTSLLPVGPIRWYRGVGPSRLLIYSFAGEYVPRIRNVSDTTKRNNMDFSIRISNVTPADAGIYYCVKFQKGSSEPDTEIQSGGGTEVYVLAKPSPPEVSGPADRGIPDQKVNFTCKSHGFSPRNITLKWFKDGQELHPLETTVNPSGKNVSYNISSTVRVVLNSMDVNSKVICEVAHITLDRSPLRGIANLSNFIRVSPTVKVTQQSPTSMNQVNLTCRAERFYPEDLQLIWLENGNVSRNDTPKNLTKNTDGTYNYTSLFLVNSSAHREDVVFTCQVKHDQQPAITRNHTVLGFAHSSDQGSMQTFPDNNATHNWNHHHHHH
Protocol: as §1

[10] = target: T2, 6×His tagged human SIRPα v2 ECD …; assay: SPR (Biacore); remark: listed apart in the source
Protocol: as §1
hu035.01, the first version of humanized 035, was characterized by FACS assay using CHOK1-human SIRPα v1-1B4 cells, ELISA assay using Fc tagged human SIRPα v2 ECD recombinant protein and SPR analysis using the antigen of 6×His tagged human SIRPα v2 ECD recombinant protein (refer to methods described in Example 3.4, Example 3.3 and Example 4.3). […] In particular, hu035.01 cannot be detected to bind with C57BL/6 mouse SIRPα ECD in ELISA assay possibly due to reduced binding activity (FIG. 5B).

[11] = target: T1, 6×His tagged human SIRPα v1 ECD …; assay: SPR (Biacore); remark: listed apart in the source

- Kd [1]: 2.66 nM
- Kd [2]: 14.7 nM
- EC50 [3]: 0.05 nM
- EC50 [4]: 0.05 nM
- IC50 [5]: 1 nM
- EC50 [6]: 0.15 nM
B1: reference antibody KWAR23 (antibody, V domains shown)
VH: EVQLQQSGAELVKPGASVKLSCTASGFNIKDYYIHWVQQRTEQGLEWIGRIDPEDGETKYAPKFQDKATITADTSSNTAYLHLSSLTSEDTAVYYCARWGAYWGQGTLVTVSS
VL: QIVLTQSPAIMSASPGEKVTLTCSASSSVSSSYLYWYQQKPGSSPKLWIYSTSNLASGVPARFSGSGSGTSYSLTISSMEAEDAASYFCHQWSSYPRTFGAGTKLELK

- Kd [1]: 1.11 nM
- Kd [2]: 2.62 nM
- EC50 [3]: 6.11 nM
- EC50 [4]: 6.11 nM
- Kd [7]: 1.11 nM
- koff [7]: 0.000203 s⁻¹
- kon [7]: 183000 M⁻¹ s⁻¹
- Kd [8]: 2.62 nM
- koff [8]: 0.000154 s⁻¹
- kon [8]: 59000 M⁻¹ s⁻¹
- Kd [9]: 5270 nM
- koff [9]: 0.0247 s⁻¹
- kon [9]: 4690 M⁻¹ s⁻¹
- Kd [10]: 0.61 nM
- Kd [11]: 1.89 nM
B2: chimeric antibody 035c (antibody, V domains shown)
VH: QIQLVQSGPELRKPGETVKISCKASGYSFTNYAMNWVKQAPGKVLKWMGFINTYTGEPTYADDFKGRFAFSLETSASTAYLQINNLKNEDTATYFCTRTRGYYDFDGGAFDYWGQGTSLTVSS
VL: DIVMTQSQKFMSTSIGDRVSVTCKASQNVGTHLAWYQQKPGQSPKALIFSASYRYIGVPDRFTGSGSGTDFTLTITNVQSEDLAEYFCQQYNTYPLTFGAGTKLELK

- EC50 [3]: 0.11 nM
- EC50 [4]: 0.11 nM
- IC50 [5]: 3.4 nM
- EC50 [6]: 0.22 nM
B3: reference antibody 29-AM4-5 (antibody, V domains shown)
VH: EVQLVESGGGLVQPGGSLRLSCAASGFNISYYFIHWVRQAPGKGLEWVASVYSSFGYTYYADSVKGRFTISADTSKNTAYLQMNSLRAEDTAVYYCARFTFPGLFDGFFGAYLGSLDYWGQGTLVTVSS
VL: DIQMTQSPSSLSASVGDRVTITCRASQSVSSAVAWYQQKPGKAPKLLIYSASSLYSGVPSRFSGSRSGTDFTLTISSLQPEDFATYYCQQAVNWVGALVTFGQGTKVEIK
